Laboratory results published in patent US20130012432A1, “Peptides for Treatment of Obesity” (Novo Nordisk A/S, priority 2010, published 2013).

Biological target: human GLP-1 receptor (human) (UniProt P43220)
Assay: cell-based or functional assay

Chain of human GLP-1 receptor (human) (P43220 24-463): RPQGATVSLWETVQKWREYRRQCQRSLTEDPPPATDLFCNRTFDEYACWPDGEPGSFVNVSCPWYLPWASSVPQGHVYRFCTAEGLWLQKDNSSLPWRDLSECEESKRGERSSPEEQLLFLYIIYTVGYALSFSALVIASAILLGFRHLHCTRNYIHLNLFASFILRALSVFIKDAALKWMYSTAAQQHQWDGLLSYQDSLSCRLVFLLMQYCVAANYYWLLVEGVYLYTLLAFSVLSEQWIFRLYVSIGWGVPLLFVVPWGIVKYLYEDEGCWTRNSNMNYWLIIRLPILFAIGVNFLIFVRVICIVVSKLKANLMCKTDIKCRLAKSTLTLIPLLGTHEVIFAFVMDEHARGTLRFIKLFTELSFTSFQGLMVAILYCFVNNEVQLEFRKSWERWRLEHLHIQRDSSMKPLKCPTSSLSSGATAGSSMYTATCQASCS

EC50 of cAMP formation (AlphaScreen, Assay XI), relative to that of compound G1 (times the EC50 of compound G1): 5
Substance: N-epsilon37-[2-(2-{2-[2-(2-{2-[(S)-4-Carboxy-4-({trans-4-[(19-carboxynonadecanoylamino)methyl]cyclohexanecarbonyl}amino)butyrylamino]ethoxy}ethoxy)acetylamino]ethoxy}ethoxy)acetyl][DesaminoHis7,Glu22,Arg26,Arg34,Lys37]GLP-1-(7-37) (peptide)
